Experimental data taken from patent US20220056147A1.
Blank lines part the entries; values can stand above or below the binder they belong to.

Key:
[1] = target: human MSLN on Oval-Citar-3-MSLN cells (human) (UniProt Q13421); test: cell ELISA on fixed Oval-Citar-3-MSLN cells, HRP anti-human IgG Fc detection
[2] = target: human MSLN on Oval-Citar-3-MSLN cells (human) (UniProt Q13421); test: flow cytometry on fixed Oval-Citar-3-MSLN cells, FITC anti-human IgG Fc detection

Sequence of human MSLN on Oval-Citar-3-MSLN cells (human) (Q13421 other isoform, or with tags, fused parts or gaps limits assumed): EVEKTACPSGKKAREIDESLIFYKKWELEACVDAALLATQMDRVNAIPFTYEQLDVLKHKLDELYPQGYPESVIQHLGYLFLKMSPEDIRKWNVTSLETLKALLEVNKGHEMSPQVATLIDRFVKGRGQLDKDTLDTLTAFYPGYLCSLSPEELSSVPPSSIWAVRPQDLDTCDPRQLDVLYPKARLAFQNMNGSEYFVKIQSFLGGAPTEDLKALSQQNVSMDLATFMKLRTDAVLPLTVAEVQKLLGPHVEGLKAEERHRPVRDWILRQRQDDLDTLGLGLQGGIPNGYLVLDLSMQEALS

EC50 [1]: 0.011 µg/mL | EC50 [2]: 0.153 µg/mL
B1: RC88 antibody (antibody, human IgG1, kappa, V domains shown)
VH: EVQLVESGGGLVQPGGSLRLSCAASGFDFSRYWMSWVRQAPGKGLEWIGEINPDSSTIVYTPSLKDKFIISRDNAKNTLYLQMNSLRAEDTALYYCARRGSHYYGYRTGYFDVWGAGTTVTVSS
VL: DVVMTQSPAFLSVTPGEKVTMTCSASSSVSYMYWHQQKPDQAPKLLIYDTSNLASGVPVRFSGSGSGTDFTFTISRMEAEDAATYYCQQWSSYPPTFGGGTKVEIKR

EC50 [1]: 0.0197 µg/mL | EC50 [2]: 0.251 µg/mL
B2: RC88-Py-MAA-Val-Cit-PAB-MMAE (antibody, human IgG1, kappa, V domains shown)
VH: B1 VH
VL: B1 VL
modifications: Py-MAA-Val-Cit-PAB-MMAE linker-drug coupled to cysteine thiols of reduced disulfide bonds (bridging linker); positions not given; DAR 3.95
